The values below come from patent publication US20250152746A1, “BASE EDITING OF ANGPTL3 AND METHODS OF USING SAME FOR TREATMENT OF DISEASE” (Verve Therapeutics, Inc., priority 2020, published 2025).

In series [1] the test system is ANGPTL3 gene. The series can be described thus: ANGPTL3 gRNA/SpCas9 editing in primary human hepatocytes (Table 3). It is filed as cell-based. Here is the method: (§1) In set of experiments, PCSK9 gRNAs were co-transfected with an equivalent amount (1:1 ratio by weight) of in vitro transcribed commercially available SpCas9 mRNA MS002 purchased from TriLink Biotechnologies into primary human hepatocytes at 2500, 500, or 100 ng/RNA/mL and processed as described in detailed methods. Extracted genomic DNA was analyzed for gene editing at the target site with next-generation sequencing of PCR amplicons generated around the target sites. Samples were prepared using the Nextera XT DNA library preparation kit (Illumina) according to the manufacturer's protocol. Briefly, two rounds of PCR were performed first to amplify the region of interest and second to add DNA sequences required for next generation sequencing and sample identification to the initial product. The final amplicon was sequenced on the Illumina MiSeq instrument according to the manufacturer's protocol. A wide range of editing activities (Table 2) were observed. In a second set of experiments, ANGPTL3 gRNAs were co-transfected with an equivalent amount of in vitro transcribed SpCas9 mRNA (1:1 ratio by weight) into primary human hepatocytes and processed and analyzed similarly (Table 3).
(§2) Plating, culturing, and transfection of primary hepatocytes. Primary human liver hepatocytes (PHH) and primary cynomolgus liver hepatocytes (PCH) from BioIVT were cultured per the manufacturer's protocol. Briefly, primary human hepatocytes and primary cyno hepatocytes were obtained as frozen aliquots from BioIVT. Four lots of primary human hepatocytes, each derived from a de-identified individual donor, were used for the experiments: STL (main donor) was used for all experiments, including screening experiments and off-target experiments; HLY, JLP, and TLY were used for off-target experiments. The HFG lot of primary cyno hepatocytes were used for experiments. Following the manufacturer's instructions, cells were thawed and rinsed prior to plating in 24-well plates that had been coated with bovine collagen overnight, with a density of approximate 350,000 cells/well in INVITROGRO hepatocyte medium supplemented with TORPEDO antibiotic mix (BioIVT). The cells were thawed and resuspended in hepatocyte thawing medium followed by centrifugation at 100 g for 10 min at 4° C. The supernatant was discarded, and the pelleted cells resuspended in hepatocyte plating medium. Each vial contains approximately 5 million cells that were used for plating one 24-well plate. Plated cells were allowed to settle and adhere for 4-6 h in a tissue culture incubator at 37° C. under 5% CO2 atmosphere. After incubation, cells were checked for monolayer formation. The incubating media were then replaced with fresh hepatocyte maintenance media (complete INVITROGRO medium obtained from BioIVT, the cell line provider). The cells thus became ready for transfection. Each of the gRNAs were co-transfected with an equivalent amount of in vitro transcribed ABE8.8 mRNA (1:1 ratio by molecular weight) into primary human hepatocytes via MessengerMax reagent (Lipofectamine), using various dilutions to assess for editing activity at different concentrations of test article. MessengerMAX from Thermo Fisher is used for transfection. Solution A: desired amount of guide RNA is mixed with 1:1 wt ratio of mRNA in OptiMEM. Solution B: MessengerMAX in OptiMEM. After mixing solutions A and B, the mixture was incubated at room temperature for 20 min. 60 μL of the incubated solution was added dropwise to each cell wells. For protospacer sequences that were a perfect match to the corresponding cynomolgous monkey PCSK9 or ANGPTL3 gene sequence, each gRNA was also co-transfected with an equivalent amount of ABE8.8 mRNA (1:1 ratio by molecular weight) into primary cynomolgous hepatocytes, and followed the same transfection protocol. The cells were then allowed to remain at 37° C. for 3 days. […]

The subject of series [2] is ANGPTL3 gene. Kind of series: ANGPTL3 gRNA/SpCas9 editing in primary cynomolgus hepatocytes (Table 3). It is filed as cell-based, cynomolgus monkey. The procedure: as §1, §2

B1: GA126: ANGPTL3 gRNA; protospacer GGAGTAGTTCTTGGTGCTCT (SEQ ID NO: 124) (nucleic acid)
guide: GGAGTAGTTCTTGGTGCTCTGTTTTAGAGCTAGAAATAGCAAGTTAAAATAAGGCTAGTCCGTTATCAACTTGAAAAAGTGGCACCGAGTCGGTGCTTTT
modifications: 2'-O-methyl at 1, 2, other sugars and backbone not given here; further chemistry not fully specified
In the case of B1, in the series on ANGPTL3 gene [1], the “Human Primary Hepatocyte Editing % 100 ng/ml” value turned out to be 6.73% and the “Human Primary Hepatocyte Editing % 500 ng/mL” value is recorded as 15.21%. Moreover, in the series with ANGPTL3 gene [2], the “Cyno Primary Hepatocyte Editing % 100 ng/mL” value was determined as 8.29% and the “Cyno Primary Hepatocyte Editing % 500 ng/ml” value is 17.57%.

B2: GA122: ANGPTL3 gRNA; protospacer CTTTTATTTGACTATGCTGT (SEQ ID NO: 120) (nucleic acid)
guide: CUTTTATTTGACTATGCTGTGTTTTAGAGCTAGAAATAGCAAGTTAAAATAAGGCTAGTCCGTTATCAACTTGAAAAAGTGGCACCGAGTCGGTGCTTTT
modifications: 2'-O-methyl at 1, 2, other sugars, backbone and T or U not given here; further chemistry not fully specified
For the molecule B2, in the series with ANGPTL3 gene [1], the “Human Primary Hepatocyte Editing % 100 ng/ml” value is 4.45% and the “Human Primary Hepatocyte Editing % 500 ng/mL” value stood at 13.82%. In the series with ANGPTL3 gene [2], the “Cyno Primary Hepatocyte Editing % 100 ng/mL” value turned out to be 7.28% and the “Cyno Primary Hepatocyte Editing % 500 ng/ml” value stood at 16.76%.

B3: GA116: ANGPTL3 gRNA; protospacer GTAGAATTTTTTCTTCTAGG (SEQ ID NO: 114) (nucleic acid)
guide: GUAGAATTTTTTCTTCTAGGGTTTTAGAGCTAGAAATAGCAAGTTAAAATAAGGCTAGTCCGTTATCAACTTGAAAAAGTGGCACCGAGTCGGTGCTTTT
modifications: 2'-O-methyl at 1, 2, other sugars, backbone and T or U not given here; further chemistry not fully specified
As to B3, in the series with ANGPTL3 gene [1], the “Human Primary Hepatocyte Editing % 100 ng/ml” value is 3.78% and the “Human Primary Hepatocyte Editing % 500 ng/mL” value worked out at 16.33%. Also, in the series on ANGPTL3 gene [2], the “Cyno Primary Hepatocyte Editing % 100 ng/mL” value stood at 10.84% and the “Cyno Primary Hepatocyte Editing % 500 ng/ml” value is recorded as 19.83%.

B4: GA132: ANGPTL3 gRNA; protospacer GGAAGATAGAGAAATTTCTG (SEQ ID NO: 130) (nucleic acid)
guide: GGAAGATAGAGAAATTTCTGGTTTTAGAGCTAGAAATAGCAAGTTAAAATAAGGCTAGTCCGTTATCAACTTGAAAAAGTGGCACCGAGTCGGTGCTTTT
modifications: 2'-O-methyl at 1, 2, other sugars and backbone not given here; further chemistry not fully specified
As for B4, in the series on ANGPTL3 gene [1], the “Human Primary Hepatocyte Editing % 100 ng/ml” value came to 15.25% and the “Human Primary Hepatocyte Editing % 500 ng/mL” value was determined as 28.39%. Further, in the series with ANGPTL3 gene [2], the “Cyno Primary Hepatocyte Editing % 100 ng/mL” value stood at 15% and the “Cyno Primary Hepatocyte Editing % 500 ng/ml” value worked out at 26%.

B5: GA127: ANGPTL3 gRNA; protospacer AACATGATGGTAAGACACTT (SEQ ID NO: 125) (nucleic acid)
guide: AACATGATGGTAAGACACTTGTTTTAGAGCTAGAAATAGCAAGTTAAAATAAGGCTAGTCCGTTATCAACTTGAAAAAGTGGCACCGAGTCGGTGCTTTT
modifications: 2'-O-methyl at 1, 2, other sugars and backbone not given here; further chemistry not fully specified
On to B5, for which, in the series on ANGPTL3 gene [1], the “Human Primary Hepatocyte Editing % 100 ng/ml” value was 5.77% and the “Human Primary Hepatocyte Editing % 500 ng/mL” value is reported as 18.74%. Besides, in the series with ANGPTL3 gene [2], the “Cyno Primary Hepatocyte Editing % 100 ng/mL” value is given as 19.89% and the “Cyno Primary Hepatocyte Editing % 500 ng/ml” value came to 33.67%.

B6: GA128: ANGPTL3 gRNA; protospacer TGAAGAAAGGGAGTAGTTCT (SEQ ID NO: 126) (nucleic acid)
guide: UGAAGAAAGGGAGTAGTTCTGTTTTAGAGCTAGAAATAGCAAGTTAAAATAAGGCTAGTCCGTTATCAACTTGAAAAAGTGGCACCGAGTCGGTGCTTTT
modifications: 2'-O-methyl at 1, 2, other sugars, backbone and T or U not given here; further chemistry not fully specified
For B6, in the series on ANGPTL3 gene [1], the “Human Primary Hepatocyte Editing % 100 ng/ml” value was 10.29% and the “Human Primary Hepatocyte Editing % 500 ng/mL” value is recorded as 25.39%. Besides, in the series with ANGPTL3 gene [2], the “Cyno Primary Hepatocyte Editing % 100 ng/mL” value amounted to 0.19% and the “Cyno Primary Hepatocyte Editing % 500 ng/ml” value is 32.55%.

B7: GA141: ANGPTL3 gRNA; protospacer TTGAGAGTTGCTGGGTCTGA (SEQ ID NO: 139) (nucleic acid)
guide: UUGAGAGTTGCTGGGTCTGAGTTTTAGAGCTAGAAATAGCAAGTTAAAATAAGGCTAGTCCGTTATCAACTTGAAAAAGTGGCACCGAGTCGGTGCTTTT
modifications: 2'-O-methyl at 1, 2, other sugars, backbone and T or U not given here; further chemistry not fully specified
For B7, in the series on ANGPTL3 gene [1], the “Human Primary Hepatocyte Editing % 100 ng/ml” value is 5.80% and the “Human Primary Hepatocyte Editing % 500 ng/mL” value is listed as 14.87%. In addition, in the series with ANGPTL3 gene [2], the “Cyno Primary Hepatocyte Editing % 100 ng/mL” value was found to be 5.49% and the “Cyno Primary Hepatocyte Editing % 500 ng/ml” value was determined as 10.32%.

B8: GA131: ANGPTL3 gRNA; protospacer GAAGATAGAGAAATTTCTGT (SEQ ID NO: 129) (nucleic acid)
guide: GAAGATAGAGAAATTTCTGTGTTTTAGAGCTAGAAATAGCAAGTTAAAATAAGGCTAGTCCGTTATCAACTTGAAAAAGTGGCACCGAGTCGGTGCTTTT
modifications: 2'-O-methyl at 1, 2, other sugars and backbone not given here; further chemistry not fully specified
As to B8, the “Human Primary Hepatocyte Editing % 500 ng/mL” value in the series on ANGPTL3 gene [1] is listed as 18.64%. Besides, in the series on ANGPTL3 gene [2], the “Cyno Primary Hepatocyte Editing % 100 ng/mL” value stood at 10.10% and the “Cyno Primary Hepatocyte Editing % 500 ng/ml” value amounted to 27.57%.

B9: GA137: ANGPTL3 gRNA; protospacer TATCAGGTAAAACCTGTCTA (SEQ ID NO: 135) (nucleic acid)
guide: UATCAGGTAAAACCTGTCTAGTTTTAGAGCTAGAAATAGCAAGTTAAAATAAGGCTAGTCCGTTATCAACTTGAAAAAGTGGCACCGAGTCGGTGCTTTT
modifications: 2'-O-methyl at 1, 2, other sugars, backbone and T or U not given here; further chemistry not fully specified
As for B9, in the series with ANGPTL3 gene [1], the “Human Primary Hepatocyte Editing % 100 ng/ml” value came to 11.44% and the “Human Primary Hepatocyte Editing % 500 ng/mL” value is on record as 29.70%. Moreover, in the series with ANGPTL3 gene [2], the “Cyno Primary Hepatocyte Editing % 100 ng/mL” value worked out at 28.01% and the “Cyno Primary Hepatocyte Editing % 500 ng/ml” value is recorded as 30.57%.

B10: GA130: ANGPTL3 gRNA; protospacer ATGATGGTAAGACACTTTGG (SEQ ID NO: 128) (nucleic acid)
guide: AUGATGGTAAGACACTTTGGGTTTTAGAGCTAGAAATAGCAAGTTAAAATAAGGCTAGTCCGTTATCAACTTGAAAAAGTGGCACCGAGTCGGTGCTTTT
modifications: 2'-O-methyl at 1, 2, other sugars, backbone and T or U not given here; further chemistry not fully specified
Take B10: in the series with ANGPTL3 gene [1], the “Human Primary Hepatocyte Editing % 100 ng/ml” value amounted to 7.51% and the “Human Primary Hepatocyte Editing % 500 ng/mL” value was found to be 17.09%. In addition, in the series with ANGPTL3 gene [2], the “Cyno Primary Hepatocyte Editing % 100 ng/mL” value worked out at 14.60% and the “Cyno Primary Hepatocyte Editing % 500 ng/ml” value is 25.90%.

B11: GA125: ANGPTL3 gRNA; protospacer TGATGGTAAGACACTTTGGT (SEQ ID NO: 123) (nucleic acid)
guide: UGATGGTAAGACACTTTGGTGTTTTAGAGCTAGAAATAGCAAGTTAAAATAAGGCTAGTCCGTTATCAACTTGAAAAAGTGGCACCGAGTCGGTGCTTTT
modifications: 2'-O-methyl at 1, 2, other sugars, backbone and T or U not given here; further chemistry not fully specified
Turning to B11, in the series with ANGPTL3 gene [1], the “Human Primary Hepatocyte Editing % 100 ng/ml” value was determined as 5.04% and the “Human Primary Hepatocyte Editing % 500 ng/mL” value was determined as 16.27%. Besides, in the series on ANGPTL3 gene [2], the “Cyno Primary Hepatocyte Editing % 100 ng/mL” value is 12.91% and the “Cyno Primary Hepatocyte Editing % 500 ng/ml” value was found to be 19.72%.

B12: GA117: ANGPTL3 gRNA; protospacer ACTACAAGTCAAAAATGAAG (SEQ ID NO: 115) (nucleic acid)
guide: ACTACAAGTCAAAAATGAAGGTTTTAGAGCTAGAAATAGCAAGTTAAAATAAGGCTAGTCCGTTATCAACTTGAAAAAGTGGCACCGAGTCGGTGCTTTT
modifications: 2'-O-methyl at 1, 2, other sugars and backbone not given here; further chemistry not fully specified
As to B12, in the series with ANGPTL3 gene [1], the “Human Primary Hepatocyte Editing % 100 ng/ml” value came out at 7.08% and the “Human Primary Hepatocyte Editing % 500 ng/mL” value came out at 16.55%. In the series with ANGPTL3 gene [2], the “Cyno Primary Hepatocyte Editing % 100 ng/mL” value stood at 10.01% and the “Cyno Primary Hepatocyte Editing % 500 ng/ml” value was determined as 26.11%.
